# Measured values: patent US8604172B2, “Humanized antibody compositions and methods for binding lysophosphatidic acid” (Lpath, Inc., priority 2009, dated 2013)
# Like-named read-outs stand apart in the source and are kept apart here.
# B1: LT3000: Murine anti-LPA monoclonal antibody clone B7, IgG1k, renamed Lpathomab, also known as LT3000; hybridoma 504B7.1, ATCC PTA-8420 (antibody, V domains shown)
# VH: QVQLQQSGAELVRPGTSVKVSCKASGYGFINYLIEWIKQRPGQGLEWIGLINPGSDYTNYNENFKGKATLTADKSSSTAYMHLSSLTSEDSAVYFCARRFGYYGSGNYFDYWGQGTTLTVSS
# VL: DVVMTQTPLSLPVSLGDQASISCTSGQSLVHINGNTYLHWYLQKPGQSPKLLIYKVSNLFSGVPDRFSGSGSGTDFTLKISRVEAEDLGVYFCSQSTHFPFTFGTGTKLEIK
# Legend:
# [1] = Surface plasmon resonance, 18:0 LPA on GLC sensor chip; format: binding
# Method: All binding data were collected on a ProteOn optical biosensor (BioRad, Hercules Calif.). 12:0 LPA-thiol and 18:0 LPA-thiol were coupled to a maleimide modified GLC sensor chip (Cat. No 176-5011). First, the GLC chip was activated with an equal mixture of sulfo-NHS/EDC for seven minutes followed by a 7 minute blocking step with ethyldiamine. Next sulfo-MBS (Pierce Co., cat #22312) was passed over the surfaces at a concentration of 0.5 mM in HBS running buffer (10 mM HEPES, 150 mM NaCl, 0.005% tween-20, pH 7.4). LPA-thiol was diluted into the HBS running buffer to a concentration of 10, 1 and 0.1 uM and injected for 7 minutes producing 3 different density LPA surfaces (˜100, ˜300 and ˜1400 RU). Next, binding data for the humanized antibodies was collected using a 3-fold dilution series starting with 25 nM as the highest concentration (original stocks were each diluted 1 to 100). Surfaces were regenerated with a 10 second pulse of 100 mM HCl. All data were collected at 25° C. Controls were processed using a reference surface as well as blank injections. […] In order to extract estimates of the binding constants, data from the varying antibody concentrations were globally fit using 1-site and 2-site models. This produced estimates of the affinity for the bivalent (site 1) and monovalent site (site 2).
# [2] = system: microblood vessel density in matrigel plugs; experiment: Matrigel plug assay (VEGF/bFGF), CD31 microvessel density; format: in vivo, C57BL/6 mice; details: for Percent Inhibition: vs control
# Method: Female C57BL/6 mice around 8 to 10-weeks old and Matrigel Matrix High Concentration purchased from BD BioSciences (Franklin Lakes, N.J. (from BD) mixed with 50 ng/ml VEGF and 50 ng/ml bFGF, heparin 3 ng/ml as angiogenic stimuli were used for this study. There were five groups of mice, 10 Matrigel plugs were inoculated into five mice for each group on Day 0. One mouse group served as a control; four others receive drug treatment in four different doses by ip injection every other day. All treatments start at Day-1 and finish at Day 8.
# Thirty C57bl/6 mice were implanted with Matrigel plugs in order to obtain 25 healthy mice with two well-shaped Matrigel plugs per mouse. On Day 0, 500 ul Matrigel at […] was subcutaneously injected to each side of the mouse, injection area was shaved. To increase the contact area of injected Matrigel into subcutaneous tissues and form a round shape plug, a wide subcutaneous pocket was formed by swaying the needlepoint right and left after a routine subcutaneous insertion. The injection was done rapidly with an appropriate size needle (21G-25G) to ensure the entire content was delivered in one plug. The injected Matrigel rapidly formed a single solid gel plug.
# Animals were treated with 8 or 2 mg/kg of antibody or saline beginning 1 day prior to the implantation of Matrigel plugs or with the vehicle. Treatments were administered ip, on a q2d schedule.
# Plugs from each group were collected at Day 12. The mice were euthanized and mouse skin was pulled back to expose the plug. The plugs was dissected out and fixed for histological analysis. Sections of 5 μm from paraffin-embedded plugs were stained with anti-CD-31 antibodies. Blood vessel density in a cross sectional area of each Matrigel plugs were analyzed. For each treatment group, at least six or more Matrigel plugs were quantitatively analyzed to assess any statistical significant difference of microvessel density between groups.
# [3] = system: human colon cancer cell line (COLO-205); experiment: Xenograft CAM assay; format: in vivo
# [4] = Competition ELISA (18:1 LPA coat), competitor 18:1 LPA; format: binding; details: maximum inhibition
# Method: Many isoforms of LPA have been identified to be biologically active and it is preferable that the mAb recognize all of them to some extent to be of therapeutic relevance. The specificity of the anti-LPA mAbs was evaluated utilizing a competition assay in which the competitor lipid was added to the antibody-immobilized lipid mixture.
# Competition ELISA assays were performed with the anti-LPA mAbs to assess their specificity. 18:1 LPA was captured on ELISA plates. Each competitor lipid (up to 10 uM) was serially diluted in BSA (1 mg/ml)-PBS and then incubated with the mAbs (3 nM). Mixtures were then transferred to LPA coated wells and the amount of bound antibody was measured with a secondary antibody. Data are normalized to maximum signal (A450) and are expressed as percent inhibition. Assays were performed in triplicate. IC50: Half maximum inhibition concentration; MI: Maximum inhibition (% of binding in the absence of inhibitor); - - -: not estimated because of weak inhibition. A high inhibition result indicates recognition of the competitor lipid by the antibody.
# [5] = LPA competition ELISA (C18:0 LPA coat); format: binding; details: LPC, PA, 14:0 and 18:1 LPA, cPA, PC
# Method: The specificity of the humanized antibody was determined by competition ELISA. C18:0 LPA coating material was diluted to 0.33 ug/ml with carbonate buffer (100 mM NaHCO3, 33.6 mM Na2CO3, pH 9.5). Plates were coated with 100 ul/well of coating solution and incubated at 37° C. for 1 hour. The plates were washed 4 times with PBS ([…], pH 7.4) and blocked with 150 ul/well of PBS, 1% BSA, 0.1% tween-20 for 1 h at room temperature. The humanized, anti-LPA antibodies were tested against lipid competitors (14:0 LPA (Avanti, Cat. No 857120), 18:1 LPA (Avanti, Cat. No 857130), 18:1 LPC (Avanti, Cat. No 845875), cLPA (Avanti, Cat. No 857328), 18:1 PA (Avanti, Cat. No 840875), PC (Avanti, Cat. No 850454) at 5 uM, 2.5 uM, 1.25 uM, 0.625 uM, and 0.0 uM. The antibody was diluted to 0.5 ug/ml in PBS, 0.1% tween-20 and combined with the lipid samples at a 1:3 ratio of antibody to sample on a non-binding plate. The plates were washed 4 times with PBS and incubated for 1 hour at room temperature with 100 ul/well of the primary antibody/lipid complex. Next the plates were washed 4 times with PBS and incubated for 1 h at room temperature with 100 […] of HRP-conjugated goat anti-human antibody diluted 1:20,000 in PBS, 1% BSA, 0.1% tween-20. […] The optical density (OD) was measured at 450 nm using a Thermo Multiskan EX. […]
molecule,measurement,setting,value
B1,Kd,"[1]; first value (site 1, bivalent), read-out: KD (C18)",11 pM
same,Kd,"[1]; value in parentheses (site 2, monovalent), read-out: KD (C18), value in parentheses",5 pM
same,"microblood vessel density, Average",[2]; 2 mg/kg ip q2d,34
same,Percent Inhibition,[2]; 2 mg/kg ip q2d,47.0%
same,"microblood vessel density, Average",[2]; 8 mg/kg ip q2d,41.5
same,Percent Inhibition,[2]; 8 mg/kg ip q2d,35.4%
same,tumor size,[3],significantly reduced
same,"MI, 18:1 LPA",[4],100%
same,cross-reactivity,[5],no cross-reactivity
